According to FireProtDB (doi:10.1021/bi962939w):

B1: Interleukin-6, P08505 (parent)
chain: MKFLSARDFHPVAFLGLMLVTTTAFPTSQVRRGDFTEDTTPNRPVYTTSQVGGLITHVLWEIVEMRKELCNGNSDCMNNDDALAENNLKLPEIQRNDGCYQTGYNQEICLLKISSGLLEYHSYLEYMKNNLKDNKKDKARVLQRDTETLIHIFNQEVKDLHKIVLPTPISNALLTDKLESQKEWLRTKTIQFILKSLEEFLKVTLRSTRQT

Variants of: B1
Details: Mus musculus, 25 °C, CD, structure 2L3Y, whole UniProt chain shown
[1] = pH 4, Urea, Sodium acetate 10 mM

Variant	ddG of mutation (higher = less stable) [1] [kcal/mol]	denaturant m value [1] [kcal/mol/M]	denaturant midpoint (higher = more stable) [1] [M]	unfolding free energy [1] [kcal/mol]	ddG of mutation (higher = less stable) (pH 7.4, GdnHCl, Tris-HCl 10 mM) [kcal/mol]	denaturant m value (pH 7.4, GdnHCl, Tris-HCl 10 mM) [kcal/mol/M]	denaturant midpoint (higher = more stable) (pH 7.4, GdnHCl, Tris-HCl 10 mM) [M]	unfolding free energy (pH 7.4, GdnHCl, Tris-HCl 10 mM) [kcal/mol]	ddG of mutation (higher = less stable) (pH 7.4, Urea, Tris-HCl 10 mM) [kcal/mol]	denaturant m value (pH 7.4, Urea, Tris-HCl 10 mM) [kcal/mol/M]	denaturant midpoint (higher = more stable) (pH 7.4, Urea, Tris-HCl 10 mM) [M]	unfolding free energy (pH 7.4, Urea, Tris-HCl 10 mM) [kcal/mol]
H57A	3.9	1.9	3.58	6.9	0.3	0.8	2	1.6				
H57A W60A	2.2	2.3	3.8	8.6	-4.1	3	2	6	-1.8	1.5	4.9	7.5
W60A	2	2.5	3.5	8.8	-3.1	2.5	4.6	5	1.7	1	4.6	4
